Results from the RNAGym collection of RNA variant scans (doi:10.1021/acssynbio.7b00057).

B1: Pistol ribozyme (parent)
chain: GGGUCGUUGUUCCAUAAUCGCGUGGAUAUGGCACGCAAGUUUCUACCGGGCACCGUAAAUGUCCGACUGGAGCCGUUCGGGCGGCUAUAAACAGACCUCAGGCCCGAAGCGUGGCGGCACCUGCCGCCGGUGGUAAAAAAGAUCGGAAGAGCACACGUCU

Variants of: B1
Experiment: aptazyme ON/OFF ratio, guanine; higher = stronger switching; co-transcriptional cleavage with and without guanine

In order of rising “aptazyme ON/OFF ratio” value:
1. G9C U10C U11C C12A C13U  0.997
2. G9A U10G U11A C13A  1.01
3. G9C U10C U11C C12A C13G  1.01
4. G9C C13A  1.02
5. G9C C13G  1.03
6. G9C U10C U11C C12A C13A  1.03
7. G9C U10C C12A C13A  1.03
8. G9C U10A U11C C13G  1.04
9. G9A U10G U11A C13G  1.04
10. G9A U10G U11A C12U  1.04
11. G9C U10C U11A C13A  1.05
12. G9A U10G U11A C13U  1.05
13. G9C U10C C12A C13U  1.05
14. G9C U10A U11G C12A C13A  1.06
15. G9A U11C C12A C13A  1.06
16. G9C U10A U11C C13U  1.06
17. G9C U10C U11A C12U C13U  1.06
18. G9C U10C C12A C13G  1.06
19. G9A U10G U11A  1.06
20. G9C U10A U11C  1.06
21. G9C C13U  1.07
22. G9C U10C U11A C13G  1.07
23. G9C U10C U11A C13U  1.07
24. G9C U10A C12U C13U  1.07
25. G9C U10C U11A C12U C13A  1.08
26. G9A U10G U11C C12U  1.08
27. G9C U10A U11C C13A  1.09
28. G9A U11G C13G  1.1
29. G9A U10C U11G C12G C13U  1.1
30. G9C C12A C13G  1.1
31. G9C U10C U11A C12U C13G  1.1
32. G9A U10G U11C  1.1
33. G9A U10G U11C C12G C13A  1.11
34. G9A U10G U11G  1.11
35. G9A U10C U11G C12G C13G  1.12
36. G9A U10G U11G C13U  1.12
37. G9A U10G C12A C13G  1.14
38. G9A U10C U11C C12G C13U  1.14
39. G9A U10G U11G C13G  1.14
40. G9A U10G U11G C12G C13U  1.15
41. G9A U10G C13G  1.15
42. G9A U10G U11G C12G C13A  1.16
43. G9A U10C U11C C12G C13A  1.16
44. G9C U10A U11G C12A C13U  1.17
45. G9C U10A U11G C12A C13G  1.17
46. G9A U10C U11G C12G C13A  1.17
47. G9A U10G U11A C12A  1.17
48. G9C U10A C12U C13G  1.17
49. G9C U10A C12G C13G  1.18
50. G9A U11G C12A C13A  1.18
51. G9A U10G C12G C13A  1.19
52. G9A U10C U11C C12G C13G  1.2
53. G9A U10G U11G C13A  1.2
54. G9A U10G C12G C13G  1.21
55. G9C U10A C12G C13U  1.22
56. G9A U10G U11G C12G C13G  1.22
57. G9A U11C C12A C13U  1.23
58. G9A U10C C12G C13A  1.23
59. G9A U10C C12G C13G  1.23
60. G9A U10G U11C C12G C13U  1.24
61. G9C U10A U11C C12G C13U  1.24
62. G9C U10A C12U C13A  1.24
63. G9A U10G U11C C12G C13G  1.27
64. G9A U10G C12G C13U  1.29
65. G9A U10G C12A C13A  1.29
66. G9C C12A C13A  1.29
67. G9A U10G C13A  1.3
68. G9C U10A C12G C13A  1.31
69. G9A U10C C12G C13U  1.31
70. G9A U11G C12A C13G  1.31
71. G9C U10A U11C C12G C13A  1.32
72. G9A U11G C12A C13U  1.32
73. G9A U10G U11C C12G  1.33
74. G9A U10G U11A C12G  1.33
75. G9A U11C C12A C13G  1.35
76. G9C C12A C13U  1.35
77. G9A U11G C13A  1.37
78. G9A U11G C13U  1.44
79. G9C U10A U11C C12G C13G  1.44
80. G9A U10G C13U  1.52
81. G9A U10G U11C C12A  1.53
82. G9A U10G C12A C13U  1.69
83. G9A U10C U11A  2.25
